The results in this text go back to FireProtDB (doi:10.1021/bi00123a002).

Values joined by “and” are separate entries in the source; they are usually repeats but may differ in a detail not shown here. Equal entries are not always repeated.

The conditions of the data set: Salmonella typhimurium (strain LT2 / SGSC1412 / ATCC 700720), pH 7.8, 25 °C, Urea, CD, Potassium phosphate 10 mM, reversible: yes, whole UniProt chain shown.

B1: Tryptophan synthase alpha chain wild type, P00929 (protein)
chain: MERYENLFAQLNDRREGAFVPFVTLGDPGIEQSLKIIDTLIDAGADALELGVPFSDPLADGPTIQNANLRAFAAGVTPAQCFEMLALIREKHPTIPIGLLMYANLVFNNGIDAFYARCEQVGVDSVLVADVPVEESAPFRQAALRHNIAPIFICPPNADDDLLRQVASYGRGYTYLLSRSGVTGAENRGALPLHHLIEKLKEYHAAPALQGFGISSPEQVSAAVRAGAAGAISGSAIVKIIEKNLASPKQMLAELRSFVSAMKAASRA
Regarding B1, the unfolding free energy came to 13.2 kcal/mol. Further, for the setting “transition: 3”, the denaturant m value is 2.68 kcal/mol/M and 1.6 kcal/mol/M; the “denaturant midpoint (higher = more stable)” value is 2.75 M and 3.64 M; the unfolding free energy is 7.35 kcal/mol and 5.81 kcal/mol.
